Measured values reported in the DeepSol protein solubility set.

Experiment: soluble on expression in E. coli; label from the status in PepcDB or PDB records

Sequence	soluble on expression in E. coli
MKCAICDSVALSLHFGAPSCKACAAFFRRTVALDITYDCITGTLDCEVNFERRMACKRCRYQKCIDNNMQRYLVQSKKGRPDASTANGIENPTTSASPSIPSPFSPPCPSSHNSAPSGLLSPMETDEIQKLNEHFFKMDSNLNKSRRMAFTDSRLLDIFSGVCKMPFEKHQLQPFDFRSYRGYQKQEYVMLFNYANTLPGFQELSNASQNFLFRIACGVDYVISSSYYTLCIGTESNLLINQDGTYIQMMPLPLMGDEPGTELMFTRKEELEKYRNIIKPRVNSWLEFIPLFKSLELSFEENAILKALCCWQTAHFKLEECDKENVRKQKSLLVQCLLKFCIDTYGEEEGPARAGNIILFSSSISVSLMGTSRNVVYGLKLPYISKS	not soluble
MRFLFSLIGLVYSSLIKLAVPFNPKARMMVRGRWKVWRQLREGIVPGGRYIWFHAASLGEFEQGRPMIERIRSEYPDYRIVLTFFSPSGYEVRKNYEGADVIVYLPADRLPRVRKFLDLVKPEMAIFIKYDFWPCFLTELERRQIPTYLVSSIFRPSQLFFRWYGGAYKRLLHCFTHIFVQDKASRLLLEKHGIDHVSVAGDTRFDRVISVYEARKSLPLIERFAASVPEDGLVIVGGSSWPPDEEILVRYFNRNPKIKLILAPHEIDKEHLLQIISHIRRPFIRLSEATESDIARQDCLIVDSFGLLSSIYRYGQVAFIGGGFGKGIHNTPEAAVYGIPVIFGPRYEKFKEARELIDVGGGFSVSSAEEFGNLIKRIQTDKAYRDAASRAAADYIRSNAGATGYIVHRIMKLEHHHHHH	soluble
MSLTVIIKSMETPEEIEGKSLVHWQTWRESYDDLLPAEFQDTMTLERCRFFSQKYPENTLIAMDGVKVVGFISYGNFRDETIQAGEIIALYVLKDYYGKGIAQKLMKAALTALNHFSEIFLWVLKDNKRAIAFYQKMGFTFDGQEKILELGKPIKEKRMVFYSKEGHHHHHH	soluble
MPKSNPVTPNKQPSEDWNELLTEFRGKGGRALQKTFIRKLWAVQEDIIANANPSTLRCIFFAPALLICPEGIKLSAEILPKIGVGNGLILLEKLILKFNLTDTECQRYGEVFVTAWRNAYQEANFDLTEELETDVISVMCQHALYAHRPTCTKFQNVIAAFAHAKKLDKSVDEMVTRLLNGCLYRALDAPNYIVQSSAAEVFFNFYPLIGEDTEDMDRIMENQHRYMMDLLRSDVISIRSEATKHVLKAISEFWLLIPKNIVKELMGYIIDTVAKDTVVSVRVAVFEGLNEMAFVPACLTAFEYGLKCAVDPALQDKSERVRLAAYQIISRLKNHKFISVFDIITRDDAIAKLDLENVETCRRQLIPIMHICLPISKSLDEAYYRPRVNYMLGKSRLALLSYFRLLGPMKIIDASQASKLIEMFITWAYRYLRKKDGPPLPETAEGYKKARAYLECALILYMSCKGMLMSDGDGTSKAKCDQIFGKVVKEIFEKYANTPILGTATAISSVIPKDYLKSIANDVLARLEDDDVPPEAVEPFLESAIHFNPDSVFDSFDSGLNVLVNLYGTKQSKKKRRELEDPEDVLIMTLNRLKYLLQSHSTSNLIAMKDEYRTKVLDLLKKIDLIREGIEIRLAKEEGQEHTLSDDVLLSILEFRFILPFFAATNGSEDAADRNQTIESMKNLLLWFEKNISSQMATFGEHNQDFLIQLTSTFLNCVNVSLSAYDFKTRPVEFEDEEDNENRDPREENDAAKDQATVAEVISRIVKSFCNSSTPFEIFRPALRVGTTLCDESYSEVHHEMALLLRFIPKWMNKQCDLMEDDEENIFKNHREIVESLRQFHKRVSETDYWDEDSAKRMMHHFMLFSIVSASSKNDDEAYDDPRDEDYKPPHFISLALIKFILKEKSLTEDIIEEISTNYIPEDSKYFTAEEGELKTDEKLSKLAALSQLLRILERYSKFHGKLIKEAIDKCTTRVLDCFANASDLNTVAHHILNSLSSLLDVQLPDENRL	not soluble
MAVKEATSETKKRSGYEIITLTSWLLQQEQKGIIDAELTIVLSSISMACKQIASLVQRANISNLTGTQGAVNIQGEDQKKLDVISNEVFSNCLRSSGRTGIIASEEEDVPVAVEESYSGNYIVVFDPLDGSSNLDAAVSTGSIFGIYSPNDECLPDFGDDSDDNTLGTEEQRCIVNVCQPGSNLLAAGYCMYSSSVIFVLTIGKGVFVFTLDPLYGEFVLTQENLQIPKSGKIYSFNEGNYKLWDENLKKYIDDLKEPGPSGKPYSARYIGSLVGDFHRTLLYGGIYGYPRDKKSKNGKLRLLYECAPMSFIVEQAGGKGSDGHQRVLDIQPTEIHQRVPLYIGSTEEVEKVEKYLA	soluble
MWSCPTLNAPRAAQKWLPVRATPHLCVLHMSRLMLSSTLIDELSYVRKDQLETSALFELIAHRYERHSIAITANEPFSGWSDAMTVAAIDRLVHHSTIIEMNGESYRKRAAVARGASTQNANDEPEDPPNRSSLEHHHHHH	not soluble
MGSDKIHHHHHHMSCIDCAVKNCNKMDKTYPDFCLTTHMDEEVLNEAMECYNEDENRKVTIAAAEVEYENYCKHTRVEEIMDFAKKINAKKIGIATCVGLLKESRILADILRRHGFEVYGVGCKAGTQKKTSVGIPECCEGVGVNMCNPILQAKLLNKAKTDLNVVVGLCVGHDSLFYKYSEALTTTAVTKDRVLGHNPVAALYTADSYYSKLKKSEEE	not soluble
MIHSLFLINCSGDIFLEKHWKSVVSQSVCDYFFEAQEKAADVENVPPVISTPHHYLISIYRDKLFFVSVIQTEVPPLFVIEFLHRVADTFQDYFGECSEAAIKDNVVIVYELLEEMLDNGFPLATESNILKELIKPPTILRSVVNSITGSSNVGDTLPTGQLSNIPWRRAGVKYTNNEAYFDVVEEIDAIIDKSGSTVFAEIQGVIDACIKLSGMPDLSLSFMNPRLLDDVSFHPCIRFKRWESERVLSFIPPDGNFRLISYRVSSQNLVAIPVYVKHSISFKENSSCGRFDITIGPKQNMGKTIEGITVTVHMPKVVLNMNLTPTQGSYTFDPVTKVLTWDVGKITPQKLPSLKGLVNLQSGAPKPEENPSLNIQFKIQQLAISGLKVNRLDMYGEKYKPFKGVKYVTKAGKFQVRT	soluble
MGSDKIHHHHHHMKIIPVFLPYAGCKKRCVFCDQIKATGQAKVPSLDDIARIIEEYSRTSNEYELGFYGGTFTGLSEEKMEEYLRFVKRFPVVKSVRVSTRPDEINERKLKILKKYGVNVIEIGVQSFLDEVLERSKRGYTSEEAEGACKLIKKNGFVLSVHLMVGLPGSDRRGEILSALRTVECGADMVRIHPTLVFEGTELHRMMEEGEYTPLNVEEAVDVCSDLVCIFEGWGTKVIRIGYHVPVELRKYVVAGPIDPSLGDRVRRTTMKKVIESLKPSRIVVPKNYLVWFEEAKVEVGDEFRFDDLSYADALFFTGKEVVERWLNG	not soluble
MVVSDLKLRDMNEADRHAVGFVGFAAWRAGDAFDASYLDSYVVERVRGEFESFAKSPTGDVVVAEIDGVVVGWGACDAKPHHISDLWVDPNWQGKGIGKALIVHFLDRMRAEGLPLATIDTHARNRAAIGLYERCGFEIVWRGMEWSDIMKVELEKVKLEQKLSP	soluble
AHHHHHHGSNQLEAVREKLRVIRMLRVLKKTYTYEDLSEITGLPVTVLNRYVKGKVLPSVERARELFEKLSPYLNLEEEVKKRLRFDSHGFFDSMSVLSDTNLLALISEDVALKYMKVGVEKILTAATDGIPLAVQIANELGVDVVYAKKKKEVGVERFYEVNYIPSASGSITTLYLPTWALKKGERVLIVDDVVRSGETQRALVELCRQAGAIPVGMFFLISVGDIVERLKEEYNIPVEALVNL	soluble
MESVLNNEKAIVVFSGGQDSTTCLFYAKKHFKEVELVTFNYGQRHDTEIEVAKQIAQDQGMKHHVLDMSLLSQLTPNALTQHDMEITNNEDGIPNTFVPARNLLFLSFAGALAYQIGAKHIITGVCETDFSGYPDCRDSFIKSMNVTLSLAMDKDFVIHTPLMWLNKAETWKLSDELEVLDYIRTKTLTCYNGIIGDGCGECPACHLRQRGLNQYLESKGAL	not soluble
MGEITQYSVSPALPAGLAIDPQTGVITGTPTAVTASAVYTVTGANSVDSVQALLTIEVAAVAVPPVGLVYVDRLPEYIVGVPITYNEPAYTGGEVTQFSISPALPAGLTLNTQSGVISGTPTVELAQTTFFITASNSAGLEHHHHHH	not soluble
MMPKVYGSLVDNETRCTHYHTFLDVIAIKFKCCNKYYPCYQCHEEHETHPIKRWSEQEFDEKAIMCGVCKHEMSIQDYMMTELCPKCQAHFNSRCKFHYHLYFELLEHHHHHH	not soluble
GSEQKKRRLEEGTRANSVAESSPPFPLRSKTSVGSTNSQITETKNKQGVYPITESNLRILEGEDRSEKAKELLKKYVSNVFENEKTLYIYCKYVMLHYGKDLVNPNEVDSLEFQIINGGITNILIKVKDMSKQAKYLIRLYGPKTDEIINREREKKISCILYNKNIAKKIYVFFTNGRIEEFMDGYALSREDIKNPKFQKLIAKNLKLLHDIKLNENLYKELQVTQKVPGTRPSFLWNTIWKYFHLLNEERKKICSFDAKANILKLIDFDVLRDSIVEVESLCKRENSPIVLCHCDLLSSNIINTVGGGEAGELGEAGETGEGGETGEGGETGEGGETGEGGEGDSISFIDFEYSCPMERAYDIANHFNEYAGFNCDWDLTPSKEEEYHFIMHYLGTDDEELINQLIREIQPFYICSHINWGLWSLLQGMHSSIDFDFINYGMTRLTASCLPIFRSKV	soluble
MYDLLVIGAGPGGYVAAIRAAQLGMKVGVVEKEKALGGTCLRVGCIPSKALLETTERIYEAKKGLLGAKVKGVELDLPALMAHKDKVVQANTQGVEFLFKKNGIARHQGTARFLSERKVLVEETGEELEARYILIATGSAPLIPPWAQVDYERVVTSTEALSFPEVPKRLIVVGGGVIGLELGVVWHRLGAEVIVLEYMDRILPTMDLEVSRAAERVFKKQGLTIRTGVRVTAVVPEAKGARVELEGARSWKTDRVLVAVGRRPYTEGLSLENAGLSTDERGRIPVDEHLRTRVPHIYAIGDVVRGPMLAHKASEEGIAAVEHMVRGFGHVDYQAIPSVVYTHPEIAAVGYTEEELKAQGIPYKVGKFPYSASGRARAMGETEGFIKVLAHAKTDRILGVHGIGARVGDVLAEAALALFFKASAEDLGRAPHAHPSLSEILKEAALAAWERPIHL	soluble
MGPIVSPALHAVQASRFEDVRQARSATGTRTDEGLRRSAGGRYAGASSRGTYQSGAGRVTNPLRRSKVSESLSIHHDVGGHQFETTVDGHRAYLAYMDLGKQTLDIYRTFVPDSLRGRGIAAALTEHALQYADRMGYSVIPSCSYVERYIERRQRQADPAALEHHHHHH	soluble
MSSSESPAGIAQIGVTGLAVMGSNIARNFARHGYTVAVHNRSVAKTDALLKEHSSDGKFVRSETIPEFLAALEKPRRVLIMVKAGEATDADAVINELADAMEPGDIIIDGGNALYTDTMRREKAMRERGLHFVGAGISGGEEGALNGPSIMPGGPAESYQSLGPLLEEISAHVDGVPCCTHIGPDGSGHFVKMVHNGIEYSDMQLIGEAYQLMRDGLGLTAPAIADVFTEWNNGDLDSYLVEITAEVLRQTDAKTGKPLVDVIVDRAEQKGTGRWTVKSALDLGVPVTGIAEAVFARALSGSVGQRSAASGLASGKLGEQPADPATFTEDVRQALYASKIVAYAQGFNQIQAGSAEFGWDITPGDLATIWRGGCIIRAKFLNHIKEAFDASPNLASLIVAPYFRGAVESAIDSWRRVVSTAAQLGIPTPGFSSALSYYDALRTARLPAALTQAQRDFFGAHTYGRIDEPGKFHTLWSSDRTEVPV	soluble
